# Test results from patent US20070298043A1 (RAMOT AT TEL AVIV UNIVERSITY, published 2007).
# T1: GST-YoeB fusion protein (Escherichia coli, UniProt P69348 1-84)
# T1 construct: also called YoeB-GST; GST-YoeB fusion polypeptide; not shown: glutathione S-transferase (GST) fusion partner encoded by the pET42a expression vector (Novagen); vector-encoded linker of pET42a between GST and the EcoRI cloning site; not described
# T1 sequence: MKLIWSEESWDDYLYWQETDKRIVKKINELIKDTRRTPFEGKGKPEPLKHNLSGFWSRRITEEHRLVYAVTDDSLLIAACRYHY
# Legend:
# [1] = biological target: T1, GST-YoeB fusion protein; assay: peptide array on cellulose membrane, anti-GST detection
# Experimental: (§1) Following incubation, the membrane was washed once in TBS-T then supplemented with 10 ml suspension comprising TBS, mouse anti-GST antibody and horseradish peroxidase conjugated goat anti-mouse antibody in the appropriate titers. Following 1 hour incubation at room temperature the membrane was briefly washed with TBS-T and TBS.
# [2] = biological target: T1, GST-YoeB fusion protein; assay: peptide array of single-replacement analogs
# Experimental: as §1
# [3] = biological target: T1, GST-YoeB fusion protein; assay: peptide array on cellulose membrane, single-residue shift, high stringency, GST-YoeB probe, anti-GST antibody and chemiluminescence
# Experimental: as §1
# [4] = biological target: T1, GST-YoeB fusion protein; assay: peptide array, low stringency
# [5] = biological target: T1, GST-YoeB fusion protein; assay: peptide array on cellulose membrane, low stringency, GST-YoeB probe, anti-GST antibody and chemiluminescence
binder,measurement,setting,value
RTISYSEAGQNLS (Arrayed on a cellulose membrane) [YefM11-23 analog with arginine 19 replaced by glycine],binding result,[1],no binding
RTISYSEARQNAS (Position 22 counts on whole YefM) [YefM11-23 analog with leucine 22 replaced by alanine],binding result,[2],binds
MRTISYSEARQNL (Cell not labelled; also called YefM10-22 peptide) [10-22],binding result,[3],binds
DSIDSLKSGKGTE [YefM75-87 peptide],binding result,[4],binds
RTISYSEAAQNLS (Arrayed on a cellulose membrane) [YefM11-23 analog with arginine 19 replaced by alanine],binding result,[1],no binding
"ISYSEARQNLSAT (It follows from 'YefM11-23-YefM15-27', three tridecamers with a shift of two amino acids; also called second of the three tridecamers YefM11-23-YefM15-27) [YefM13-25 peptide]",binding result,[5],binds
TISYSEARQNLSA (Cell not labelled; also called YefM12-24 peptide) [12-24],binding result,[3],binds
RTISYSEARQNGS (Position 22 counts on whole YefM) [YefM11-23 analog with leucine 22 replaced by glycine],binding result,[2],binds
YSEARQNLSATMM [YefM15-27 peptide],binding result,[5],binds
